This note sets out measurements from US9278138B2, “Peptide linkers for effective multivalent peptide binding” (E. I. DU PONT DE NEMOURS AND COMPANY, priority 2008, dated 2016).

By Kd is commonly meant a measure of binding affinity in units of concentration.

This test is described as follows: Surface Plasmon Resonance binding to spin-coated cellulose acetate surface (Biacore X100). The following applies: for peptide concentration at which binding response (net RU) started rising: net RU versus peptide concentration, FIG. 6. As to the method:
Binding affinity of CA4 peptide and CA4 multimers were assessed by Surface Plasmon Resonance (SPR). The CA surface was prepared by spin-coating 0.75% CA solution in mixed cyclohexanone/methyl ethyl ketone (1/9 weight ratio) solvent at 2000 rpm for 1 minute twice on the Biacore bare gold sensor chip (Biacore Inc., Catalogue numberBR-1004-05; General Electric Corp., Fairfield, Conn.), followed by 80° C. annealing for 15 minutes. The CA resin used was CA-398-10 from Eastman Chemical Company (Kingsport, Tenn.), and the solution prepared was filtered with 0.2 μm PTFE membrane before use. The thickness of the spin-coated CA thin film was measured by Atomic Force Microscope (AFM) to be 26-30 nm.
Binding of each peptide to the CA surface was tested at various concentration ranges in Tris Buffered Saline (TBS, 25 mM Tris, 150 mM NaCl, pH 7.5), using Biacore X100 system. Each peptide solution sample was injected for 2 minutes at flow rate of 30 μL/minute followed by 10 minutes buffer wash. Surface regeneration and stabilization procedure was performed after each peptide solution injection as such: 90 seconds of 1% SLES (sodium laureth sulfate) solution injection and 90 seconds of 2 M NaCl solution injection at flow rate of 10 μL/minute, and 25 minutes stabilization in TBS. For the samples of each peptide at different concentrations, a new sensor chip flow cell was used.
Because a monolithic CA surface made from spin-coating on the whole sensor chip was used as ligand for peptides, no ligand-free reference cell was possible to have in these tests in order to take bulk response out as in conventional SPR protein assay using Biacore instruments. Bulk response refers to the SPR response to the refractive index difference between the sample solution and the running buffer, but not caused by sample binding to the surface. Bulk response completely disappears once sample injection is finished and buffer wash starts. So the response units (RU) remained right after injection was caused by binding and proportional to the mass of peptide bound to the surface, and was named as “net RU” in binding data. […] Typically, association and dissociation rate constant (ka and kd) can be obtained from binding kinetics curve fitting, and dissociation constant (KD). can be determined from the ratio of dissociation rate constant to association rate constant. The use of short linkers (3-6 amino acid residues) in CA4 dimer 1, CA4 dimer 2 and CA4 trimer gave 5 fold improvement on binding affinity compared to CA4 monomer. The use of long rigid linker (TonB linker) in CA4 dimer 4 gave 50 fold improvement on binding affinity compared to CA4 monomer. […] As control, the TonB linker peptide was tested in the same way.
On the technique in general: In SPR one partner is held on a chip, and binding of the other changes the refractive index at the surface.

Where [1] appears, read: TBS pH 7.5, from binding kinetics curve fitting.

As for “GPEPEPEPEPIPEPPKEAPWIEKPKPKPKPKPKPA [TonB linker, reference compound]”, the “peptide concentration at which binding response (net RU) started rising” value is over 50 µM. For the same molecule, the “binding affinity to CA surface (in words)” value (SPR) is given as “no binding affinity”. Also, the “KD(M) from kinetics” value (TBS pH 7.5, ratio of kd to ka) was “undetectable”.

B1: SDETGPQIPHRRPTWGPEPEPEPEPIPEPPKEAPVVIEKPKPKPKPKPKPPASDETGPQIPHRRPTW (peptide)
chain: SDETGPQIPHRRPTWGPEPEPEPEPIPEPPKEAPVVIEKPKPKPKPKPKPPASDETGPQIPHRRPTW
modifications: synethic cellulose acetate-binding construct
As to B1, the “peptide concentration at which binding response (net RU) started rising” value came out at 5 µM. Under setting [1], this molecule returned a ka of 441.5 M⁻¹ s⁻¹ and a kd of 0.00089 s⁻¹. Moreover, the Kd (TBS pH 7.5, ratio of kd to ka, read-out: KD(M) from kinetics) was found to be 2e-06 M. The “fold improvement on binding affinity compared to CA4 monomer” value (based on KD of Table 10) was found to be 50 fold.
